B1: Double-stranded RNA-binding protein Staufen homolog 1 (Homo sapiens), O95793-2 (parent)
chain: MKLGKKPMYKPVDPYSRMQSTYNYNMRGGAYPPRYFYPFPVPPLLYQVELSVGGQQFNGKGKTRQAAKHDAAAKALRILQNEPLPERLEVNGRESEEENLNKSEISQVFEIALKRNLPVNFEVARESGPPHMKNFVTKVSVGEFVGEGEGKSKKISKKNAAIAVLEELKKLPPLPAVERVKPRIKKKTKPIVKPQTSPEYGQGINPISRLAQIQQAKKEKEPEYTLLTERGLPRRREFVMQVKVGNHTAEGTGTNKKVAKRNAAENMLEILGFKVPQAQPTKPALKSEEKTPIKKPGDGRKVTFFEPGSGDENGTSNKEDEFRMPYLSHQQLPAGILPMVPEVAQAVGVSQGHHTKDFTRAAPNPAKATVTAMIARELLYGGTSPTAETILKNNISSGHVPHGPLTRPSEQLDYLSRVQGFQVEYKDFPKNNKNEFVSLINCSSQPPLISHGIGKDVESCHDMAALNILKLLSELDQQSTEMPRTGNGPMSVCGRC

Variants of: B1
Details: with gag_hv1h2 gag

| Variant | effect of a mutation on the interaction |
| --- | --- |
| MKLGKKPMYKPVDPYSRMQSTYNYNMRGGAYPPRYFYPFPVPPLLYQVELSVGGQQFNGKGKTRQAAKHDAAAKALRILQNEPLPERLEVNGRESEEENLNKSEISQVFEIALKRNLPVNFEVARESGPPHMKNAVTKVSVGEFVGEGEGKSKKISKKNAAIAVLEELKKLPPLPAVERVKPRIKKKTKPIVKPQTSPEYGQGINPISRLAQIQQAKKEKEPEYTLLTERGLPRRREFVMQVKVGNHTAEGTGTNKKVAKRNAAENMLEILGFKVPQAQPTKPALKSEEKTPIKKPGDGRKVTFFEPGSGDENGTSNKEDEFRMPYLSHQQLPAGILPMVPEVAQAVGVSQGHHTKDFTRAAPNPAKATVTAMIARELLYGGTSPTAETILKNNISSGHVPHGPLTRPSEQLDYLSRVQGFQVEYKDFPKNNKNEFVSLINCSSQPPLISHGIGKDVESCHDMAALNILKLLSELDQQSTEMPRTGNGPMSVCGRC [F135A] | disrupting interaction |

Reference: IntAct's records for PubMed 18498651
